Tests used:
Assay type in all cases: binding
[1] = Indirect competitive immunoassay using anti-2,3,4,7,8-PeCDF scFv; settings: 2,3,4,7,8-PeCDF solution in 20% DMSO; immobilized 2,3,4,7,8-PeCDF derivative-BSA conjugate; FIG. 9
Protocol: Determination of 2,3,4,7,8-PeCDF by an Indirect Competitive Immunoassay Using Anti-2,3,4,7,8-PeCDF scFv
One μg/ml of 2,3,4,7,8-PeCDF derivative-BSA conjugate (50 μl) was added to a microtiter plate, and allowed to react at room temperature for one hour. The wells of the microtiter plate were washed with PBS(−) containing 0.05% Tween 20. A solution of Block Ace (Yukijirushi Co.) was then added to the wells, and the wells were blocked by allowing them to stand at room temperature for two hours. After the microtiter plate was washed, a solution (25 μl) of 2,3,4,7,8-PeCDF prepared in various concentrations (a solution in 20% DMSO) and a solution (25 μl) of anti-2,3,4,7,8-PeCDF scFv were added to the wells, and allowed to react at room temperature for 0.5 to 1 hour. After the microtiter plate was again washed, a solution of anti-tetra-His antibody (Qiagen Co.) 2000-fold diluted was added to the wells, and allowed to react at room temperature for one hour. Subsequently, a solution (50 μl) of peroxidase-labeled anti-mouse IgG (recognizing γ-chain) antibody (KPL Co.) 3000-fold diluted was added to the wells, and allowed to react at room temperature for one hour. […] The reaction was terminated by adding 1 M H3PO4 (50 μl), and OD450 (control: OD600) was measured using a plate reader (Labsystems Co.).

[2] = Hybridoma supernatant EIA: antibody titer to immobilized 2,3,4,7,8-PeCDF derivative-BSA conjugate and its inhibition by 2,3,4,7,8-PeCDF; settings: titer inhibited by 2,3,4,7,8-PeCDF dissolved in 20% DMSO
Protocol: After 7 to 10 days from the onset of the cultivation, a portion of the supernatant of the culture in the wells in which proliferation of hybridomas was observed was taken and added to a microtiter plate to which the 2,3,4,7,8-PeCDF derivative-BSA conjugate was immobilized. After allowing to react at room temperature for one hour, the plate was washed with PBS(−) containing 0.05% Tween 20. A peroxidase-labeled anti-mouse IgG antibody (recognizing γ-chain) (KPL Co.) was then added to the plate and allowed to react at room temperature for one hour, and the plate was then washed in the same manner. A substrate solution (TMB substrate, KPL Co.) was added to the plate, the peroxidase activity on the plate was measured, and the antibody titer in the supernatant of the culture was determined.

[3] = EIA reactivity of H-chain variable region polypeptide fractions to immobilized 2,3,4,7,8-PeCDF-BSA conjugate; settings: fractions eluted from nickel-chelate column; EIA on immobilized 2,3,4,7,8-PeCDF-BSA conjugate; FIG. 10
Protocol: Escherichia coli Origami B (DE3) (Novagen Co.) was transformed using expression vector pET22Δ-Dx3860H which was prepared by removing the sequence between restriction enzyme sites Bam HI and Not I containing the L-chain variable region of expression vector pET22Δ-Dx3860HL. Using the transformant, the expression of the H-chain variable region polypeptide (polypeptide having the amino acid sequence as shown in SEQ ID No. 5) was carried out in the same manner as in the case of the scFv.
The H-chain variable region polypeptide obtained as an inclusion body was reconstituted on a nickel-chelate column as described above, and the product was then isolated and purified using imidazole. Protein concentrations of the fractions eluted from the chelate column were determined by measuring absorbance (280 nm), and the reactivity to an immobilized 2,3,4,7,8-PeCDF-BSA conjugate was also investigated by an EIA method. As a result, it was recognized that the fractions of the H-chain variable region polypeptide have an anti-2,3,4,7,8-PeCDF activity as shown in FIG. 10.

Row | Molecule | recognition of 2,3,4,7,8-PeCDF by monoclonal antibody [2] | further results
1 | anti-2,3,4,7,8-PeCDF scFv: scFv: H-chain variable region of Dx3860, linker, L-chain variable region of Dx3860 (SEQ ID No. 56), expressed in E. coli Origami B (DE3) (protein, scFv fragment Dx3860HL) scFv: EVKLVESGGGLVKPGGSLKLSCAASGFTFSSYAMSWVRQTPEKRLEWVASFSNGGITYYPDSVKGRFTISRDNARNILYLQMTSLRSEDTAIYYCARGYGPAYWGQGTLVTVSSGGGGSGGGGSGGGGSQAVVTQESALTTSPGETVTLTCRSSTGAVTTLNYANWVQEKPDHLFTGLIGNTNNRAPGVPARFSGSLIGDKAALTITGAQTEDEAIYFCALWYSNHLVFGGGTKLTVLG | – | determination of 2,3,4,7,8-PeCDF by indirect competitive immunoassay [1]: can be determined in a highly sensitive manner
2 | Dx3150: monoclonal antibody recognizing 2,3,4,7,8-PeCDF, produced by hybridoma Dx3150r1; H/L variable regions SEQ ID Nos. 7 and 8 (antibody, V domains shown, Polypeptide of H-chain variable region of monoclonal antibody Dx 3150; Polypeptide of L-chain variable region of monoclonal antibody Dx 3150) VH: DVQLQESGPGLVKPSQSLSLTCSVTGYSITSGFYWNWIRQFPGNKLEWMGYISYDGYNNYNPFLKNRVSITRDTSENQFFLKLHSVTTEDTATYYCVSYGSRRGVTYWGQGTTLTVSS VL: QAVVTQESALTTSPGETVTLTCRSSTGAVTTSNYANWVQEKPDHLFTGLIGNTNNRAPGVPARFSGSLIGDKAALTITGAQTEDEAIYFCALWYNTHLVFGGGTRLTVLG | recognizing 2,3,4,7,8-PeCDF | –
3 | H-chain variable region polypeptide: H-chain variable region of Dx3860, polypeptide having the amino acid sequence of SEQ ID No. 5, from vector pET22Δ-Dx3860H (antibody, V domains shown, Polypeptide of H-chain variable region of monoclonal antibody Dx 3860) VH: EVKLVESGGGLVKPGGSLKLSCAASGFTFSSYAMSWVRQTPEKRLEWVASFSNGGITYYPDSVKGRFTISRDNARNILYLQMTSLRSEDTAIYYCARGYGPAYWGQGTLVTVSA | – | binding activity to 2,3,4,7,8-PeCDF (anti-2,3,4,7,8-PeCDF activity) [3]: has a binding activity to 2,3,4,7,8-PeCDF
4 | Dx3860: monoclonal antibody recognizing 2,3,4,7,8-PeCDF, produced by hybridoma Dx3860r1; H/L variable regions SEQ ID Nos. 5 and 6 (antibody, V domains shown, Polypeptide of H-chain variable region of monoclonal antibody Dx 3860; Polypeptide of L-chain variable region of monoclonal antibody Dx 3860) VH: EVKLVESGGGLVKPGGSLKLSCAASGFTFSSYAMSWVRQTPEKRLEWVASFSNGGITYYPDSVKGRFTISRDNARNILYLQMTSLRSEDTAIYYCARGYGPAYWGQGTLVTVSA VL: QAVVTQESALTTSPGETVTLTCRSSTGAVTTLNYANWVQEKPDHLFTGLIGNTNNRAPGVPARFSGSLIGDKAALTITGAQTEDEAIYFCALWYSNHLVFGGGTKLTVLG | recognizing 2,3,4,7,8-PeCDF | –

— patent publication US20060269977A1, “Recombinant antibody recognizing dioxin and gene encoding the antibody” (priority 2003, published 2006)
